Laboratory results published in US20210087522.

What was measured:
[1] = target: T1, FNPCP, CP of an uncharacterized NRP gene cluster from Fischerella
T1 chain: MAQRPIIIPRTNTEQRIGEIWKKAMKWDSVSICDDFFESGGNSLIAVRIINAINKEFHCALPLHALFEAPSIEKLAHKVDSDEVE

[2] = target: T2, SFACP, ACP of the FAS from Synechocystis
T2 chain: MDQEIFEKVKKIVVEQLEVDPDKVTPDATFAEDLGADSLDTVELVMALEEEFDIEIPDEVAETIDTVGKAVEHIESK

[3] = target: T3, FisPCP, PCP of the shinorine gene cluster from Fischerella
T3 chain: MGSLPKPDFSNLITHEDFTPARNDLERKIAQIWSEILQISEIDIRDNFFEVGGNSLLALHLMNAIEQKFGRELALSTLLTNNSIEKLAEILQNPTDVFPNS

[4] = target: ScACP, ACP of a putative concanamycin gene cluster from Streptomyces coelicolor A(3)2
[5] = target: T4, FNsACP, homolog of ArCPNp from Fischerella
T4 chain: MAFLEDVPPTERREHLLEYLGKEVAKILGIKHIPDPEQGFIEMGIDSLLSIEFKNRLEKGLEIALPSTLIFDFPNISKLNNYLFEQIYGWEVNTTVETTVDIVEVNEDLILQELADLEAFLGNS

[6] = target: AprACP, ACP of the apratoxin (PK/NRP) gene cluster in Lyngbya sp.
[7] = target: T5, SsPCP, PCP of a thaxtomin cluster from Streptomyces scabiei 87.22
T5 chain: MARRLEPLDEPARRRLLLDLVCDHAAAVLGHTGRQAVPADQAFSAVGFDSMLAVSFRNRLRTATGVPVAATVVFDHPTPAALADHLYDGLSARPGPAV

[8] = target: T6, AFACP, ACP of the FAS from Anabaena
T6 chain: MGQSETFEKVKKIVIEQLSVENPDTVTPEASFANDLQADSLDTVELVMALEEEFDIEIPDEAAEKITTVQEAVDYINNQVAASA

[9] = target: T7, APNPCP, CP of an uncharacterized NRP/PK gene cluster from Anabaena
T7 chain: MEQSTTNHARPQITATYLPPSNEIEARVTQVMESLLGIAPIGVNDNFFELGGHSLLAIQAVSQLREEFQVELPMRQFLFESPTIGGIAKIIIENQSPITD

[10] = target: T8, MACP, CP of an uncharacterized NRP/PK gene cluster from M. aeruginosa NIES843
T8 chain: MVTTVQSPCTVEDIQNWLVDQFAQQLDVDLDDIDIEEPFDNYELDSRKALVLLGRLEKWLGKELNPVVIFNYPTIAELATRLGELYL

[11] = target: T9, APACP, ACP of the glycolipid PKS in Anabaena
T9 chain: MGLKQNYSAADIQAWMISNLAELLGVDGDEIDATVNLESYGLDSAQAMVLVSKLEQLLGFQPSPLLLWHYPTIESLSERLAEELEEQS

B1: APPT, Sfp-like phosphopantetheinyl transferase (PPTase) from Anabaena sp. PCC7120 (protein)
chain: MLQHTWLPKPPNLTLLSDEVHLWRIPLDQPESQLQDLAATLSSDELARANRFYFPEHRRRFTAGRGILRSILGGYLGVEPGQVKFDYESRGKPILGDRFAESGLLFNLSHSQNLALCAVNYTRQIGIDLEYLRPTSDLESLAKRFFLPREYELLRSLPDEQKQKIFFRYWTCKEAYLKATGDGIAKLEEIEIALTPTEPAKLQTAPAWSLLELVPDDNCVAAVAVAGFGWQPKFWHY
With B1 the Km [1] was 12.1 µM, the kcat [1] was 0.203 s⁻¹ and the kcat/Km [1] was 16700 M⁻¹ s⁻¹. The “phosphopantetheinylation of CP (apo to holo), LC-MS” value (from here on “phosphopantetheinylation of CP”) [1] was “APPT, AvPPT, MPPT and Sfp functionalized all substrates”, the Km [2] was 2.8 µM and the kcat [2] was 0.0267 s⁻¹. For the same protein, the kcat/Km [2] was 10000 M⁻¹ s⁻¹, the “phosphopantetheinylation of CP” value [2] was “APPT, AvPPT, MPPT and Sfp functionalized all substrates” and the Km [3] was 7.1 µM. The kcat [3] was 0.0383 s⁻¹, the kcat/Km [3] was 5000 M⁻¹ s⁻¹ and the “phosphopantetheinylation of CP” value [3] was “APPT, AvPPT, MPPT and Sfp functionalized all substrates”. The Km [4] was 14.1 µM, the kcat [4] was 0.09 s⁻¹ and the kcat/Km [4] was 6670 M⁻¹ s⁻¹. The “phosphopantetheinylation of CP” value [4] was “APPT, AvPPT, MPPT and Sfp functionalized all substrates”, the Km [5] was 8.4 µM and the kcat [5] was 0.0367 s⁻¹. For the same protein, the kcat/Km [5] was 5000 M⁻¹ s⁻¹, the “phosphopantetheinylation of CP” value [5] was “APPT, AvPPT, MPPT and Sfp functionalized all substrates” and the Km [6] was 7.8 µM. For the same protein, the kcat [6] was 0.238 s⁻¹, the kcat/Km [6] was 30000 M⁻¹ s⁻¹ and the “phosphopantetheinylation of CP” value [6] was “APPT, AvPPT, MPPT and Sfp functionalized all substrates”. For the same protein, the Km [7] was 7.4 µM, the kcat [7] was 0.127 s⁻¹ and the kcat/Km [7] was 16700 M⁻¹ s⁻¹. The “phosphopantetheinylation of CP” value [7] was “APPT, AvPPT, MPPT and Sfp functionalized all substrates”, the Km [8] was 6.8 µM and the kcat [8] was 0.195 s⁻¹. The kcat/Km [8] was 28300 M⁻¹ s⁻¹, the “phosphopantetheinylation of CP” value [8] was “APPT, AvPPT, MPPT and Sfp functionalized all substrates” and the Km [9] was 1.6 µM. For the same protein, the kcat [9] was 0.0167 s⁻¹, the kcat/Km [9] was 10000 M⁻¹ s⁻¹ and the “phosphopantetheinylation of CP” value [9] was “APPT, AvPPT, MPPT and Sfp functionalized all substrates”. The Km [10] was 7.9 µM, the kcat [10] was 0.0617 s⁻¹ and the kcat/Km [10] was 8330 M⁻¹ s⁻¹. The “phosphopantetheinylation of CP” value [10] was “APPT, AvPPT, MPPT and Sfp functionalized all substrates”, the Km [11] was 10 µM and the kcat [11] was 0.283 s⁻¹. The kcat/Km [11] was 26700 M⁻¹ s⁻¹ and the “phosphopantetheinylation of CP” value [11] was “APPT, AvPPT, MPPT and Sfp functionalized all substrates”.

B2: AvPPT, Sfp-like phosphopantetheinyl transferase (PPTase) from Anabaena variabilis ATCC29413 (protein)
chain: MLQHTWLPKPPNLTLLSDEVHLWRIPLDRPESQLQHLAATLSSDELARANRFYFPEHRQRFTAGRGILRSILGLYLGVEPKQVKFEYESRGKPVLGDRFADSGLLFNLSHSQNLGLCAVNYTRQIGIDLEYLRPTSDLESLAKRFFLPREYELLRSLPDEQKQKIFFRYWTCKEAYLKATGDGIAKLEEIEIALTPTEPAKLQTTPAWSLLELVPDDNCVAAVAVAGFGWQPKFWQY
B2 was tested, and the “phosphopantetheinylation of CP” value [1] was “APPT, AvPPT, MPPT and Sfp functionalized all substrates”, the “phosphopantetheinylation of CP” value [2] was “APPT, AvPPT, MPPT and Sfp functionalized all substrates” and the “phosphopantetheinylation of CP” value [3] was “APPT, AvPPT, MPPT and Sfp functionalized all substrates”. For the same protein, the “phosphopantetheinylation of CP” value [4] was “APPT, AvPPT, MPPT and Sfp functionalized all substrates”, the “phosphopantetheinylation of CP” value [5] was “APPT, AvPPT, MPPT and Sfp functionalized all substrates” and the “phosphopantetheinylation of CP” value [6] was “APPT, AvPPT, MPPT and Sfp functionalized all substrates”. The “phosphopantetheinylation of CP” value [7] was “APPT, AvPPT, MPPT and Sfp functionalized all substrates”, the “phosphopantetheinylation of CP” value [8] was “APPT, AvPPT, MPPT and Sfp functionalized all substrates” and the “phosphopantetheinylation of CP” value [9] was “APPT, AvPPT, MPPT and Sfp functionalized all substrates”. The “phosphopantetheinylation of CP” value [10] was “APPT, AvPPT, MPPT and Sfp functionalized all substrates” and the “phosphopantetheinylation of CP” value [11] was “APPT, AvPPT, MPPT and Sfp functionalized all substrates”.
